Reference: patent publication US20240263208A1, “CYTOCHROME P450 ENZYME” (HYPHA DISCOVERY LTD., priority 2021, published 2024)

Legend:
Assay type in all cases: biochemical
[1] = Oxidase activity testing, lyophilised recombinant P450/ferredoxin SeuF08/ferredoxin reductase SCF15A against ambroxide
[2] = Oxidase activity testing against carbamazepine
Description: Lyophilised material of recombinant P450, ferredoxin and ferredoxin reductase proteins was made as described in Example 4 and reconstituted in high purity water to the original volume. Biocatalysis was performed with shaking incubation at 27° C. in the following conditions: 100 mM potassium phosphate pH 8.0, 5 mM MgCl2 (both present in the reconstituted enzyme preparation) and 0.1 mg/ml substrate compound such as ambroxide (Sigma-Aldrich, UK), carbamazepine (Sigma-Aldrich, UK), diclofenac (Sigma-Aldrich, UK), tivantinib (MedChemtronica, Sweden), clarithromycin (Tokyo Chemical Industry, Japan), sclareol (Sigma-Aldrich, UK), celecoxib (LC Laboratories, USA), buparvaquone (Sigma-Aldrich, UK), BIRB796 (MedChemExpress, USA), vanoxerine (CiVentiChem, USA), valsartan (Tokyo Chemical Industry, Japan), ruxolitinib (LC Laboratories, USA), perindopril (Selleckchem, USA), solifenacin (Key Organics, UK), 7-ethoxycoumarin (Tokyo Chemical Industry, Japan), tofacitinib (LC Laboratories, USA), ebastine (Key Organics, UK), efavirenz (Key Organics, UK), propanalol (Sigma-Aldrich, UK) and tolbutamide (Key Organics, UK).
Concentrations of P450, ferredoxin and ferredoxin reductase were as extracted (Example 4). Reactions were initiated by addition of 10× stock of cofactor mixture (50 mM G6P, 10 mM NADP+, 10 UN/ml G6PDH) to provide a final volume of e.g., 10 μl to 90 μl for 100 μl total reaction volumes. After 16-20 hours, reactions were extracted with an equal volume of acetonitrile, centrifuged to remove precipitated proteins and conversion assessed by UPLC-MS analysis.
UPLC Data were Obtained as Follows: • Column: Acquity UPLC BEH Shield RP18 1.7 μm 2.1 mm i.d. 50 mm length • Solvents: H2O, B: Acetonitrile, both with 0.1% Formic acid • Flow rate: 1.0 ml/min • Detector: Waters Acquity UPLC PDA (UV-Vis detection) and Waters Acquity UPLC QDA (MS)
To confirm the identities of reaction products where known, their chromatographic retention time, mass and ultraviolet spectra were compared with those of authentic metabolite standards.
Representative results for the % conversions of carbamazepine to oxidised (+16 Da) products for single point mutants at position L198 are shown in Table 3 below.

[3] = Oxidase activity testing against sclareol; details: substrate Sclareol, UPLC-MS UV or MS peak areas
Method in brief: (§1)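 P450 + ferredoxin + ferredoxin reductase (reconstituted lyophilisate); 0.1 mg/ml substrate; 100 mM KPi pH 8.0, 5 mM MgCl2; 27° C, shaking, 16-20 h. NADPH regenerated via G6P/G6PDH/NADP+. Read-out: % conversion by UPLC-MS after acetonitrile extraction.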

[4] = Oxidase activity testing against celecoxib; details: substrate Celecoxib
Method in brief: as §1

[5] = Oxidase activity testing against buparvaquone; details: substrate Buparvaquone
Method in brief: as §1

[6] = Oxidase activity testing against BIRB796; details: substrate BIRB796
Method in brief: as §1

[7] = Oxidase activity testing against vanoxerine; details: substrate Vanoxerine
Method in brief: as §1

[8] = Oxidase activity testing against valsartan; details: substrate Valsartan
Method in brief: as §1

[9] = Oxidase activity testing against ruxolitinib; details: substrate Ruxolitinib
Method in brief: as §1

[10] = Oxidase activity testing against perindopril; details: substrate Perindopril
Method in brief: as §1

[11] = Oxidase activity testing against solifenacin; details: substrate Solifenacin
Method in brief: as §1

[12] = Oxidase activity testing against 7-ethoxycoumarin; details: substrate 7-ethoxycoumarin
Method in brief: as §1

[13] = Oxidase activity testing against tofacitinib; details: substrate Tofacitinib
Method in brief: as §1

[14] = Oxidase activity testing against ebastine; details: substrate Ebastine
Method in brief: as §1

[15] = Oxidase activity testing against efavirenz; details: substrate Efavirenz
Method in brief: as §1

[16] = Oxidase activity testing against clarithromycin; details: substrate Clarithromycin
Method in brief: as §1

[17] = Oxidase activity testing against propanalol; details: substrate Propanalol
Method in brief: as §1

[18] = Oxidase activity testing against tolbutamide; details: substrate Tolbutamide
Method in brief: as §1

[19] = oxidised ambroxide product, relative MS peak area

B1: SeuC10: native CYP450 from Streptomyces eurythermus NRRL 2539, SEQ ID NO: 2 (protein, listed as Streptomyces eurythermus)
chain: MKIGTTHLTRLRGLSMTELTDITGPAAQAETVAFPQDRTCPYHPPTGYDPLRDGRPLSRVTLYDGREVWLVTAQATARALLADPRLSTDRRRDGFPVPTPRFAAGRDRTLALLGLDDPEHHRQRRLLIPSFTLKRATAQRPWIQRIVDELLDAMIARGPVADLVSAFALPVPSMVICELLGVPYADHEFFEEQSRRLLRGPTGADTTDARDRLEAYLGDLIDAKAKEAEPGDGILDDLVHNRLRAGELDRSVLVSLAVILLVAGHETTANMISLGTYTLLQHPERLAELRADPSLLPAVVEELLRMLSIAEGLQRLALEDIEIDGITIRAGEGVLFSTSVINRDTAVYEDPDDLDFHRADRHHVAFGFGIHQCLGQNLARAELEIALGSLFTRLPGLRLAAPAEEIPFKPGDTVQGMLELPVTW
+16 Da (1.50 min) 253 m/z [1, 19]: 72.2%
+16 Da (1.60 min) 253 m/z [1, 19]: 5.0%
+16 Da (2.04 min) 253 m/z [1, 19]: 0.0%
reaction products from ambroxide (in words) ([1]; products at 1.50, 1.61 and 2.04 minutes): produce the product at 1.50 as the major product
Ambroxide (2.22 min) 237 m/z ([1]; remaining substrate, relative MS peak area, 0.1 mg/ml ambroxide, 27° C., 16-20 hours): 22.8%
Average % conversion ([1]; substrate ambroxide, relative MS peak areas): 77.2%
+16 Da (1.18 min) 253 m/z ([2]; 2-hydroxycarbamazepine, relative MS peak area): 0.0%
+16 Da (1.14 min) 253 m/z ([2]; carbamazepine epoxide, relative MS peak area): 43.6%
reaction products from carbamazepine (in words) ([2]; new product at 1.18 minutes identified as 2-hydroxycarbamazepine, epoxide at 1.14 minutes): carbamazepine epoxide as the only reaction product
Parent (1.31 min) 237 m/z ([2]; remaining carbamazepine, relative MS peak area, 0.1 mg/ml, 27° C., 16-20 hours): 56.4%
Average % conversion ([2]; substrate carbamazepine, relative MS peak areas): 43.6%
Average % conversion ([3]; Batch 1): 38.5%
Average % conversion ([3]; Batch 2): 35.5%
Average % conversion ([4]; Batch 1): 29.4%
Average % conversion ([4]; Batch 2): 22.2%
Average % conversion ([5]; Batch 1): 23.5%
Average % conversion ([5]; Batch 2): 32.9%
Average % conversion ([6]; Batch 1): 83.1%
Average % conversion ([6]; Batch 2): 78.8%
Average % conversion ([7]; Batch 1): 75.8%
Average % conversion ([7]; Batch 2): 65.8%
Average % conversion ([8]; Batch 1): 20.1%
Average % conversion ([8]; Batch 2): 20.8%
Average % conversion ([9]; Batch 1): 80.9%
Average % conversion ([9]; Batch 2): 98.6%
Average % conversion ([10]; Batch 1): 30.9%
Average % conversion ([10]; Batch 2): 32.7%
Average % conversion ([11]; Batch 1): 5.3%
Average % conversion ([11]; Batch 2): 7.2%
Average % conversion ([12]; Batch 1): 22.9%
Average % conversion ([12]; Batch 2): 23.3%
Average % conversion ([13]; Batch 1): 36.7%
Average % conversion ([13]; Batch 2): 51.6%
Average % conversion ([14]; Batch 1): 8.8%
Average % conversion ([14]; Batch 2): 4.5%
Average % conversion ([15]; Batch 1): 0%
Average % conversion ([15]; Batch 2): 0%
Average % conversion ([16]; Batch 1): 0%
Average % conversion ([16]; Batch 2): 0%
Average % conversion ([17]; Batch 1): 0%
Average % conversion ([17]; Batch 2): 0%
Average % conversion ([18]; Batch 1): 32.2%
Average % conversion ([18]; Batch 2): 37.7%
